Four molecules from US20240254227A1 (Alector, published 2024) can be followed below.

First the molecules themselves.
B1: anti-CD300LB antibody CD-05 (antibody, V domains shown)
VH: QVQLVQSGAEVKKPGASVKVSCKASGYTFSRYYINWVRQAPGQGLEWMGWINPNSGGTNYAQKFQGRVTMTRDTSTSTVYMELSSLRSEDTAVYYCTTDQLRFGKTGPYYGMDVWGQGTTVTVSS
VL: DIQMTQSPSSLSASVGDRVTITCRASQNIGTYLNWYQQKPGKAPKLLIYAASSLQSGVPSRFSGSGSGTDFTLTISSLQPEDFATYYCQQSYSDTLTFGGGTKVEIK
B2: anti-CD300LB antibody CD-01 (antibody, V domains shown)
VH: RVQLQQSGAELVRPGASVTLSCKASGFTFTDFEMHWVKKTPVHGLEWIGAIDPESGNTAYNQKFRGKATLTADKSSSTAYMELRYLTSEDSAVYYCTPLISGADYWGQGTTLTVSS
VL: DVVMTQSPLSLPVSLGDQASISCRSSQSLVHSDGNTYLYWYLQKPGQSPKLLIYKVSNRFSGVPDRFSGSGSGTDFTFKISRVGAEDLGVYFCSQSTHVPWTFGGGTKLEII
B3: anti-CD300LB antibody CD-03 (antibody, V domains shown)
VH: EVQLQQSGPELVKPGASVKISCKASGYTFTDYYINWVRQSHGKSLECIGDINPNNGGTNYNQKFKGKATLTVDRSSNTAYMEFRSLTFDDSALYYCAAEGAYWGQGTLVTVSA
VL: not shown
B4: anti-CD300LB antibody CD-02 (antibody, V domains shown)
VH: QVQLQQPGAELVRPGSSVKLSCQASGYTFTNYWMHWVRQRPIQGLEWIGNIDPSDSETHYNQKFKDRATLTVDKSSSTAYMQLSSLTSEDSAVYYCARSGVYDDEGGDYWGQGTTLTVSS
VL: ENVLTQSPAIMSASPGEKVTMTCSASSSVSYIHWYQQKSSTSPKLWIYDTSKLASGVPGRFSGSGSGNSYSLTISSMETEDVATYYCFQGSGYPLTFGAGTKLELK

The target of one assay is T1, human CD300F-Fc (human).
T1 construct: hIgG1-Fc fusion; the entry is the whole fusion chain
T1 chain: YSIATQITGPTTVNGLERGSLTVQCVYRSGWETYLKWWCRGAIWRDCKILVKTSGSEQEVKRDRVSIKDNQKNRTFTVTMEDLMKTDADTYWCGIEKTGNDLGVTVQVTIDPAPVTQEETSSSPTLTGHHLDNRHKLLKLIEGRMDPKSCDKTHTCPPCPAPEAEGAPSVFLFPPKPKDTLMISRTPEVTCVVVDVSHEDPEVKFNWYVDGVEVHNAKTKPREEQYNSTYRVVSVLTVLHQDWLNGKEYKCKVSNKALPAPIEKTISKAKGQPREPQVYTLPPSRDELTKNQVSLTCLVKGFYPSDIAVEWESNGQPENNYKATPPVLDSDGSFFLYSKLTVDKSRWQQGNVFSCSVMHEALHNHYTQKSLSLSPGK
Description: SPR (Carterra LSA), antibody immobilised. The source says: (§1) In addition to the screening of antibodies for cross-reactivity by FACS analysis, surface plasmon resonance (SPR) analysis was used to determine the binding of antibodies to recombinant huCD300 and muCD300 family members (orthologs) conjugated to an Fc (human CD300A-Fc SEQ ID NO:144; human CD300LB-Fc SEQ ID NO:145; human CD300C-Fc SEQ ID NO: 146; human CD300D-Fc SEQ ID NO: 147; human CD300E-Fc SEQ ID NO: 148; human CD300F-Fc SEQ ID NO: 149; murine CD300A-Fc SEQ ID NO: 150; murine CD300LB-Fc SEQ ID NO:151; murine CD300C-Fc SEQ ID NO: 152; murine CD300D-Fc SEQ ID NO: 153, and murine CD300E-Fc SEQ ID NO: 154).
(§2) Binding of mouse anti-CD300LB IgG1 antibodies of the present disclosure to human and murine CD300 orthologs were evaluated by surface plasmon resonance (SPR) using a Carterra LSA instrument (Carterra, Salt Lake City, UT). […] A HC200M sensor chip (Carterra) was activated using the single channel flow cell with a 7-minute injection of a 1:1:1 mixture of 100 mM MES pH 5.5, 100 mM sulfo-NHS, 400 mM EDC (all reconstituted in MES pH 5.5; 100 μL of each mixed in vial immediately before running assay). After switching to the multi-channel array flow cell, the antibodies were injected over the activated chip in a 96-spot array for 10 minutes. The remaining unconjugated active groups on the chip were then blocked by injecting 1M Ethanolamine pH 8.5 (Carterra) for 7 minutes using the single channel flow cell. After priming with running buffer (HBS-TE, Carterra) with 0.5 mg/ml BSA (Sigma), the immobilized anti-CD300LB antibodies were tested for their ability to bind human and mouse recombinant CD300LB extracellular domains. Human CD300 family members and mouse CD300A were hIgG1-Fc fusions, while mouse CD300LB, mouse CD300C, mouse CD300D, and mouse CD300E were mouse IgG2a-Fc fusions (R&D Systems). Binding was assessed by injecting each analyte over the entire antibody array using the single channel flow cell. CD300 analytes were diluted to 300 nM or 600 nM in running buffer and injected in series without regeneration. Two or three buffer blanks were run between each mouse or human ortholog, respectively. Data were processed and analyzed using NextGenKIT high-throughput kinetics analysis software (Carterra).
Consider B1, for which the binding result was “no binding (tested: 300 nM or 600 nM)”.
For B2, the binding result was “no binding (tested: 300 nM or 600 nM)”.
As for B3, the binding result is “no binding (tested: 300 nM or 600 nM)”.
Same read-out and setting: under B4 stands “no binding (tested: 300 nM or 600 nM)”.

A further assay has as its target T2, human CD300E-Fc (human).
T2 construct: hIgG1-Fc fusion; the entry is the whole fusion chain
T2 chain: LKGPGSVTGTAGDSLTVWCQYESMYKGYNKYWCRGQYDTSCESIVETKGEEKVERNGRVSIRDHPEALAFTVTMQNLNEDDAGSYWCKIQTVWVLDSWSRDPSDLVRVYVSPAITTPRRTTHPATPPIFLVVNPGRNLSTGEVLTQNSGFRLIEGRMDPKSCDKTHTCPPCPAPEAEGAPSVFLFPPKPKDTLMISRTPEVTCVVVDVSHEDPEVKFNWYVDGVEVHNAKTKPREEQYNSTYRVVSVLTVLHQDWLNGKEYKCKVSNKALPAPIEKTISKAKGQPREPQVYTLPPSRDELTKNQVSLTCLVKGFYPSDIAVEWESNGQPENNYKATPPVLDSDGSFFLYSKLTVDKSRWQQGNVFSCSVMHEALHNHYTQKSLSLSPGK
Description: SPR (Carterra LSA), antibody immobilised.
Text: as §1, §2
As to B1, the binding result was “no binding (tested: 300 nM or 600 nM)”.
Regarding B2, the binding result was “no binding (tested: 300 nM or 600 nM)”.
Same read-out and setting: then B3, with “no binding (tested: 300 nM or 600 nM)”; and B4, with “no binding (tested: 300 nM or 600 nM)”.

In the next assay the target is T3, human CD300A-Fc (human).
T3 construct: hIgG1-Fc fusion; the entry is the whole fusion chain
T3 chain: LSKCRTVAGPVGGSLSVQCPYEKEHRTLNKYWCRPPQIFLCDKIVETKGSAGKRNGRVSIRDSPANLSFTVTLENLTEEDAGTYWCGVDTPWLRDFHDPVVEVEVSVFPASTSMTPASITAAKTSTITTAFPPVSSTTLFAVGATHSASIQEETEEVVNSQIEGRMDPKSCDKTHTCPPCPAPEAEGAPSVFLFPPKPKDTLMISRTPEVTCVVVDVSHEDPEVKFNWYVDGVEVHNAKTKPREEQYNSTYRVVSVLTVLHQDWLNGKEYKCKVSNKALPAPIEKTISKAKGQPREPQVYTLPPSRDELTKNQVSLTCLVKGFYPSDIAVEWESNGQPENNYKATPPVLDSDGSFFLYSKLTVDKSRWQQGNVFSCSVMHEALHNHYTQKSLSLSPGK
Description: SPR (Carterra LSA), antibody immobilised.
Text: as §1, §2
Turning to B1, the binding result is recorded as “no binding (tested: 300 nM or 600 nM)”.
With B2, the binding result is “no binding (tested: 300 nM or 600 nM)”.
Regarding B3, the binding result is given as “no binding (tested: 300 nM or 600 nM)”.
Still for that read-out and setting: then B4, with “no binding (tested: 300 nM or 600 nM)”.

The next assay addresses T4, human CD300C-Fc (human).
T4 construct: hIgG1-Fc fusion; the entry is the whole fusion chain
T4 chain: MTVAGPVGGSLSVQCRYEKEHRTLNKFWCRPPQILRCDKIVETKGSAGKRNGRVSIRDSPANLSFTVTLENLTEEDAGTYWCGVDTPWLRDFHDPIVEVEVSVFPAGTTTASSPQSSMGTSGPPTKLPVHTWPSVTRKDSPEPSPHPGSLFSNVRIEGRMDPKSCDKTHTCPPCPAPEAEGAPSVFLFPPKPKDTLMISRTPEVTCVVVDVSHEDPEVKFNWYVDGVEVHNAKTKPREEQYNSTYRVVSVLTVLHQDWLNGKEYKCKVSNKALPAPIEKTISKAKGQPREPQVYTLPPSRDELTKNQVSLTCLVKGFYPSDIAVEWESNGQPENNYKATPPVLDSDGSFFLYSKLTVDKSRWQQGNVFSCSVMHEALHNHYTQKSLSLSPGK
Description: SPR (Carterra LSA), antibody immobilised.
Text: as §1, §2
As for B1, the binding result is recorded as “no binding (tested: 300 nM or 600 nM)”.
On to B2, for which the binding result is recorded as “no binding (tested: 300 nM or 600 nM)”.
For the molecule B3, the binding result is given as “no binding (tested: 300 nM or 600 nM)”.
As to B4, the binding result is recorded as “no binding (tested: 300 nM or 600 nM)”.
